According to patent publication US11702666B2, “Cell-based assay for determining activity in the retinoblastoma pathway” (Medical Diagnostic Laboratories, LLC, priority 2017, dated 2023):
“Also recorded” adds a separate entry of the source.

System: E2F1/Dp-1 heterodimer
Assay: Rb activity assay (LB-Rb with E2F1-SB, DP1 split luciferase)
Assay type: cell-based, human
Set-up: key to Observed activity: N—no activity; A—active as WT; R—reduced activity compared to the WT
Conditions: for luciferase activity / E2F1 interaction of Rb mutant: LB-Rb and E2F1-SB with Dp-1; for Observed activity / % (/wt): Rb mutants; for % (/wt): activity relative to WT
Text: An assay that could measure the interaction between Rb, E2F1, and Dp-1 was developed. Since Dp-1 forms a heterodimer with E2F1 and that interaction is crucial for Rb/E2F1 binding, the assay was comprised of three components. When two proteins (Rb and E2F1) are in close proximity or in complex, a light signal was observed. For the purposes of the current assay, split-luciferase complementation was used to measure the interaction between Rb and E2F1. The NanoBiT assay system by Promega (Madison, Wis.; Dixon et al., 2015, ACS ChemBiol) was used in our split luciferase complementation design.
FIG. 16 depicts the design of a signal system to measure Rb activity. Under basal conditions inside the cell, Rb was active and interacted with the E2F1/Dp-1 heterodimer. For this assay design, cDNAs of Rb linked to different parts of the luciferase protein, either termed as the “Small BiT” (SB), or “Large BiT” (LB) and E2F1 linked to the opposite portion of the luciferase protein were created. When Rb and E2F1/Dp-1 bind, the NanoBiT parts of the luciferase form a complex and emitted a light signal when the luciferase (NanoGlo) substrate was added.
Using the described assay design, HEK293 CDK DKO cells were transiently transfected with different combinations of SB-Rb or LB-Rb and E2F1-LB or E2F1-SB components containing C-terminal and N-terminal constructs (FIG. 17). Relative intensities generated are presented in FIG. 17 as relative luminescence units (RLU). The data represents a sample experiment where each condition was performed in triplicate and represent mean+SD.
The LB-Rb and E2F1-SB with Dp-1 were tested for Rb activity using known Rb null mutants: R661W and C706F (FIG. 18A). […] Rb in-frame (del35) and out-of frame (del1) deletion mutants (FIG. 18B) were constructed and the observed luciferase activity was close to 0, in particular for del1 mutant, because Rb-E2F1 binding was destroyed.
Within the provided assay design, stable cell lines using the HEK293 CDK DKO cell parent line expressing E2F1-SB and Dp-1 were produced. After selection and screening for positive clones using an LB-Rb-mediated increase in signal, four stable single cell clones were selected and evaluated using different Rb mutants (FIGS. 19A and 19B). The response to E2F1 interaction was also checked by using the plasmid and linear form of DNA. Cell line #37 was selected for all our experiments in assay development due to its favorable response.
The conditions of the assay were further optimized by analyzing different cell numbers and Rb concentrations (FIG. 20). Based on the data, it was decided to use 0.2×10^6 cells/ml and 70 ng of DNA in the assay.
Known null and out/in-frame deletion mutants disrupting E2F1 binding and unknown COSMIC mutants were created to examine the ability of the assay to detect variants in Rb that affect function. We transfected WT or mutated Rb using similar conditions as previously indicated (FIG. 20). […] In addition, the null C706F and deletion (del1) mutants presented a signal close to zero as expected for loss of function mutants that disrupt E2F1 interaction. […] This confirmed that the assay was capable of determining the relative activity level of Rb mutants. The data is provided in Luminescence (RLU) of a single experiment with each condition performed in triplicate and represent average+SD.

E2F1/Dp-1 heterodimer, sequence (Q01094 58-437 limits assumed): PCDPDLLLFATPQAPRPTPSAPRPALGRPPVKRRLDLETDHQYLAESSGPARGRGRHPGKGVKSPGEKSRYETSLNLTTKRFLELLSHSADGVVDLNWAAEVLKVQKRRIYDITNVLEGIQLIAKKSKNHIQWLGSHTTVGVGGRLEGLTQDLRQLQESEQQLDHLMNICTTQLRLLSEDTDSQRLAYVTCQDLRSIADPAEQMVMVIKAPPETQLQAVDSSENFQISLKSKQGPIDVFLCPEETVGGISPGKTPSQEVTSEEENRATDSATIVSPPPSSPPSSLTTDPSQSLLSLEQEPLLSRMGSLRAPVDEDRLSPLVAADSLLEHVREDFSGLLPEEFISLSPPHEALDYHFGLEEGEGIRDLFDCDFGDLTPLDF
E2F1/Dp-1 heterodimer, sequence (Q14186 whole entry, further chain): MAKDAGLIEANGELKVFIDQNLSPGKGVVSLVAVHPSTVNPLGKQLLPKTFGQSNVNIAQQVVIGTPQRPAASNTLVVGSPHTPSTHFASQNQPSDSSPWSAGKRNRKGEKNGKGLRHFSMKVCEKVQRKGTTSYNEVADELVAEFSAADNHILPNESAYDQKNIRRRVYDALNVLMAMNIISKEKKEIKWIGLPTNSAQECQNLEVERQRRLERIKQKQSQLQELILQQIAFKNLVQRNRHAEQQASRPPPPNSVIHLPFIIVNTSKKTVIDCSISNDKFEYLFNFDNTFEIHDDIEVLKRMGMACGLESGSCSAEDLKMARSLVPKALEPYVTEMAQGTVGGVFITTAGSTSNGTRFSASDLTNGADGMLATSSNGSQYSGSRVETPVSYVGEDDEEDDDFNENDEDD

Molecule	Observed activity	% (/wt) [%]	luciferase activity / E2F1 interaction of Rb mutant
Rb C706F: known Rb null mutant (protein, UniProt P06400 2-928, looked up, variant C706F) Retinoblastoma-associated …: PPKTPRKTAATAAAAAAEPPAPPPPPPPEEDPEQDSGPEDLPLVRLEFEETEEPDFTALCQKLKIPDHVRERAWLTWEKVSSVDGVLGGYIQKKKELWGICIFIAAVDLDEMSFTFTELQKNIEISVHKFFNLLKEIDTSTKVDNAMSRLLKKYDVLFALFSKLERTCELIYLTQPSSSISTEINSALVLKVSWITFLLAKGEVLQMEDDLVISFQLMLCVLDYFIKLSPPMLLKEPYKTAVIPINGSPRTPRRGQNRSARIAKQLENDTRIIEVLCKEHECNIDEVKNVYFKNFIPFMNSLGLVTSNGLPEVENLSKRYEEIYLKNKDLDARLFLDHDKTLQTDSIDSFETQRTPRKSNLDEEVNVIPPHTPVRTVMNTIQQLMMILNSASDQPSENLISYFNNCTVNPKESILKRVKDIGYIFKEKFAKAVGQGCVEIGSQRYKLGVRLYYRVMESMLKSEEERLSIQNFSKLLNDNIFHMSLLACALEVVMATYSRSTSQNLDSGTDLSFPWILNVLNLKAFDFYKVIESFIKAEGNLTREMIKHLERCEHRIMESLAWLSDSPLFDLIKQSKDREGPTDHLESACPLNLPLQNNHTAADMYLSPVRSPKKKGSTTRVNSTANAETQATSAFQTQKPLKSTSLSLFYKKVYRLAYLRLNTLCERLLSEHPELEHIIWTLFQHTLQNEYELMRDRHLDQIMMFSMYGICKVKNIDLKFKIIVTAYKDLPHAVQETFKRVLIKEEEYDSIIVFYNSVFMQRLKTNILQYASTRPPTLSPIPHIPRSPYKFPSSPLRIPGGNIYISPLKSPYKISEGLPTPTKMTPRSRILVSIGESFGTSEKFQKINQMVCNSDRVLKRSAEGSNPPKPLKKLRFDIEGSDEADGSKHLPGESKFQQKLAEMTSTRTRMQKQKMNDSMDTSNKEEK	N	5.5	completely disrupted the E2F1 interaction; also recorded: close to zero
Rb A488V: Rb mutant from COSMIC database (protein, UniProt P06400 2-928, looked up, variant A488V) Retinoblastoma-associated …: PPKTPRKTAATAAAAAAEPPAPPPPPPPEEDPEQDSGPEDLPLVRLEFEETEEPDFTALCQKLKIPDHVRERAWLTWEKVSSVDGVLGGYIQKKKELWGICIFIAAVDLDEMSFTFTELQKNIEISVHKFFNLLKEIDTSTKVDNAMSRLLKKYDVLFALFSKLERTCELIYLTQPSSSISTEINSALVLKVSWITFLLAKGEVLQMEDDLVISFQLMLCVLDYFIKLSPPMLLKEPYKTAVIPINGSPRTPRRGQNRSARIAKQLENDTRIIEVLCKEHECNIDEVKNVYFKNFIPFMNSLGLVTSNGLPEVENLSKRYEEIYLKNKDLDARLFLDHDKTLQTDSIDSFETQRTPRKSNLDEEVNVIPPHTPVRTVMNTIQQLMMILNSASDQPSENLISYFNNCTVNPKESILKRVKDIGYIFKEKFAKAVGQGCVEIGSQRYKLGVRLYYRVMESMLKSEEERLSIQNFSKLLNDNIFHMSLLVCALEVVMATYSRSTSQNLDSGTDLSFPWILNVLNLKAFDFYKVIESFIKAEGNLTREMIKHLERCEHRIMESLAWLSDSPLFDLIKQSKDREGPTDHLESACPLNLPLQNNHTAADMYLSPVRSPKKKGSTTRVNSTANAETQATSAFQTQKPLKSTSLSLFYKKVYRLAYLRLNTLCERLLSEHPELEHIIWTLFQHTLQNEYELMRDRHLDQIMMCSMYGICKVKNIDLKFKIIVTAYKDLPHAVQETFKRVLIKEEEYDSIIVFYNSVFMQRLKTNILQYASTRPPTLSPIPHIPRSPYKFPSSPLRIPGGNIYISPLKSPYKISEGLPTPTKMTPRSRILVSIGESFGTSEKFQKINQMVCNSDRVLKRSAEGSNPPKPLKKLRFDIEGSDEADGSKHLPGESKFQQKLAEMTSTRTRMQKQKMNDSMDTSNKEEK	R	51	

Second part, led by results:

Observed activity	% (/wt) [%]	Molecule	luciferase activity / E2F1 interaction of Rb mutant
N	5.2	Rb R661W: known Rb null mutant (protein, UniProt P06400 2-928, looked up, variant R661W) Retinoblastoma-associated …: PPKTPRKTAATAAAAAAEPPAPPPPPPPEEDPEQDSGPEDLPLVRLEFEETEEPDFTALCQKLKIPDHVRERAWLTWEKVSSVDGVLGGYIQKKKELWGICIFIAAVDLDEMSFTFTELQKNIEISVHKFFNLLKEIDTSTKVDNAMSRLLKKYDVLFALFSKLERTCELIYLTQPSSSISTEINSALVLKVSWITFLLAKGEVLQMEDDLVISFQLMLCVLDYFIKLSPPMLLKEPYKTAVIPINGSPRTPRRGQNRSARIAKQLENDTRIIEVLCKEHECNIDEVKNVYFKNFIPFMNSLGLVTSNGLPEVENLSKRYEEIYLKNKDLDARLFLDHDKTLQTDSIDSFETQRTPRKSNLDEEVNVIPPHTPVRTVMNTIQQLMMILNSASDQPSENLISYFNNCTVNPKESILKRVKDIGYIFKEKFAKAVGQGCVEIGSQRYKLGVRLYYRVMESMLKSEEERLSIQNFSKLLNDNIFHMSLLACALEVVMATYSRSTSQNLDSGTDLSFPWILNVLNLKAFDFYKVIESFIKAEGNLTREMIKHLERCEHRIMESLAWLSDSPLFDLIKQSKDREGPTDHLESACPLNLPLQNNHTAADMYLSPVRSPKKKGSTTRVNSTANAETQATSAFQTQKPLKSTSLSLFYKKVYRLAYLWLNTLCERLLSEHPELEHIIWTLFQHTLQNEYELMRDRHLDQIMMCSMYGICKVKNIDLKFKIIVTAYKDLPHAVQETFKRVLIKEEEYDSIIVFYNSVFMQRLKTNILQYASTRPPTLSPIPHIPRSPYKFPSSPLRIPGGNIYISPLKSPYKISEGLPTPTKMTPRSRILVSIGESFGTSEKFQKINQMVCNSDRVLKRSAEGSNPPKPLKKLRFDIEGSDEADGSKHLPGESKFQQKLAEMTSTRTRMQKQKMNDSMDTSNKEEK	completely disrupted the E2F1 interaction
R	32	Rb I680T: Rb mutant from COSMIC database (protein) MVFTLEDFVGDWEQTAAYNLDQVLEQGGVSSLLQNLAVSVTPIQRIVRSGENALKIDIHVIIPYEGLSADQMAQIEEVFKVVYPVDDHHFKVILPYGTLVIDGVTPNMLNYFGRPYEGIAVFDGKKITVTGTLWNGNKIIDERLITPDGSMLFRVTINSGSSGGGGSGGGGSSGGAQGNSNTIQQLMMILNSASDQPSENLISYFNNCTVNPKESILKRVKDIGYIFKEKFAKAVGQGCVEIGSQRYKLGVRLYYRVMESMLKSEEERLSIQNFSKLLNDNIFHMSLLACALEVVMATYSRSTSQNLDSGTDLSFPWILNVLNLKAFDFYKVIESFIKAEGNLTREMIKHLERCEHRIMESLAWLSDSPLFDLIKQSKDREGPTDHLESACPLNLPLQNNHTAADMYLSPVRSPKKKGSTTRVNSTANAETQATSAFQTQKPLKSTSLSLFYKKVYRLAYLRLNTLCERLLSEHPELEHITWTLFQHTLQNEYELMRDRHLDQIMMCSMYGICKVKNIDLKFKIIVTAYKDLPHAVQETFKRVLIKEEEYDSIIVFYNSVFMQRLKTNILQYASTRPPTLSPIPHIPRSPYKFPSSPLRIPGGNIYISPLKSPYKISEGLPTPTKMTPRSRILVSIGESFGTSEKFQKINQMVCNSDRVLKRSAEGSNPPKPLKKLRFDIEGSDEADGSKHLPGESKFQQKLAEMTSTRTRMQKQKMNDSMDTSNKEEK	
A	79	Rb R656W: Rb mutant from COSMIC database (protein, UniProt P06400 2-928, looked up, variant R656W) Retinoblastoma-associated …: PPKTPRKTAATAAAAAAEPPAPPPPPPPEEDPEQDSGPEDLPLVRLEFEETEEPDFTALCQKLKIPDHVRERAWLTWEKVSSVDGVLGGYIQKKKELWGICIFIAAVDLDEMSFTFTELQKNIEISVHKFFNLLKEIDTSTKVDNAMSRLLKKYDVLFALFSKLERTCELIYLTQPSSSISTEINSALVLKVSWITFLLAKGEVLQMEDDLVISFQLMLCVLDYFIKLSPPMLLKEPYKTAVIPINGSPRTPRRGQNRSARIAKQLENDTRIIEVLCKEHECNIDEVKNVYFKNFIPFMNSLGLVTSNGLPEVENLSKRYEEIYLKNKDLDARLFLDHDKTLQTDSIDSFETQRTPRKSNLDEEVNVIPPHTPVRTVMNTIQQLMMILNSASDQPSENLISYFNNCTVNPKESILKRVKDIGYIFKEKFAKAVGQGCVEIGSQRYKLGVRLYYRVMESMLKSEEERLSIQNFSKLLNDNIFHMSLLACALEVVMATYSRSTSQNLDSGTDLSFPWILNVLNLKAFDFYKVIESFIKAEGNLTREMIKHLERCEHRIMESLAWLSDSPLFDLIKQSKDREGPTDHLESACPLNLPLQNNHTAADMYLSPVRSPKKKGSTTRVNSTANAETQATSAFQTQKPLKSTSLSLFYKKVYWLAYLRLNTLCERLLSEHPELEHIIWTLFQHTLQNEYELMRDRHLDQIMMCSMYGICKVKNIDLKFKIIVTAYKDLPHAVQETFKRVLIKEEEYDSIIVFYNSVFMQRLKTNILQYASTRPPTLSPIPHIPRSPYKFPSSPLRIPGGNIYISPLKSPYKISEGLPTPTKMTPRSRILVSIGESFGTSEKFQKINQMVCNSDRVLKRSAEGSNPPKPLKKLRFDIEGSDEADGSKHLPGESKFQQKLAEMTSTRTRMQKQKMNDSMDTSNKEEK	
